Columns and labels:
[1] = substrate: Nc1ncnc2c1ncn2[C@@H]1O[C@H](COP(=O)(O)O)[C@@H](OP(=O)(O)O)[C@H]1O; assay: Reverse-physiological reaction of βAST-IV (PAPS from PAP and p-nitrophenyl sulfate); assay type: biochemical, rat; details: other: 10 mM p-nitrophenyl sulfate, pH 7.0, 25° C., FIG. 6 legend
Experimental: All capillary zone electrophoresis (CZE) was run in 0.23 M borate in running buffer at pH 7.8. The column was pre-washed with H2 O (1 min), 1 N NaOH (1 min), and running buffer (2 min). The sample was pressure injected at 20 psi sec and electrophoresis was run with 20.0 kV (- to +) at 20° C. with detection at 260 nm. CZE of 1 mM standards PAPS, PAP, and 3'-adenosine monophosphate (3'-AMP) were run to determine retention times. The reverse-physiological reaction assay mixture, a 500 μL solution containing 50 mM bis-tris propane-HCl buffer at pH 7.0, 1 mM 2-mercaptoethanol, 10 mM p-nitrophenyl sulfate, and 1 mM PAP at 25° C., was subjected to CZE prior to addition of enzyme (t=0). 5 mU βAST-IV was added and CZE was repeated 30 minutes after initiation. The reaction was then diluted 100-fold and CZE was run again. A 2.0 μL internal standard of 10 mM PAPS was added, and CZE was repeated.
βAST-IV activity in the reverse-physiological reaction was determined at 25° C. with a total volume of 500 μL. The reverse-physiological assay above was used with varying PAP concentration (15.6, 31.3, 62.5, 125, 250, 500 μM). Measurement of initial velocity was conducted over 10 seconds at 400 nm, and an extinction coefficient of 1064 was used to calculate p-nitrophenol concentration at pH 7.0. […]

[2] = substrate: CC(=O)N[C@H]1[C@H](O[C@H]2[C@H](O)[C@@H](NC(C)=O)C(O)O[C@@H]2CO)O[C@H](CO)[C@@H](O[C@@H]2O[C@H](CO)[C@@H](O)[C@H](O)[C@H]2NC(C)=O)[C@@H]1O; assay: purified protein, by the assay type; details: pH 7.0
[3] = substrate: CC(=O)N[C@H]1[C@H](O[C@H]2[C@H](O)[C@@H](NC(C)=O)C(O)O[C@@H]2CO)O[C@H](CO)[C@@H](O[C@@H]2O[C@H](CO)[C@@H](O[C@@H]3O[C@H](CO)[C@@H](O)[C@H](O)[C@H]3NC(C)=O)[C@H](O)[C@H]2NC(C)=O)[C@@H]1O; assay: Continuous spectrophotometric coupled-enzyme assay of NodST with βAST-IV PAPS regeneration; assay type: biochemical, Rhizobium melioti; details: other: apparent value, coupled assay, 20 μM PAPS, pH 7.0
Experimental: (§1) 100 mM bis-tris propane-HCl, pH 7.0, 5 mM 2-mercaptoethanol, 20 μM PAPS, 2 mM p-nitrophenyl sulfate, 3.0 mU NodST, 6.4 mU β-AST IV, and substrate are combined to a total volume of 500 μL. Because commercial PAPS contains significant amounts of PAP, the assay solution is incubated for 30 minutes at 20° C. prior to addition of substrate. The evolution of p-nitrophenol is monitored at 400 nm for 10 minutes.
(§2) All reactions were run in a total volume of 500 μL at 25° C. […] The amount of NodST added to each series of acceptor concentrations is varied over 1.2, 1.8, 3.0, and 4.2 mU. Because commercial PAPS contains significant amounts of PAP, the assay solution is incubated for 30 minutes at 20° C. prior to addition of substrate. The evolution of p-nitrophenol is monitored at 400 nm for 10 minutes.
(§3) 3.0 mU of NodST was used in each reaction. The Km for each series of PAP concentrations was calculated and the values were compared.

[4] = substrate: CC(=O)N[C@H]1[C@H](O[C@H]2[C@H](O)[C@@H](NC(C)=O)[C@H](O[C@H]3[C@H](O)[C@@H](NC(C)=O)C(O)O[C@@H]3CO)O[C@@H]2CO)O[C@H](CO)[C@@H](O[C@@H]2O[C@H](CO)[C@@H](O[C@@H]3O[C@H](CO)[C@@H](O)[C@H](O)[C@H]3NC(C)=O)[C@H](O)[C@H]2NC(C)=O)[C@@H]1O; assay: as above; assay type: biochemical, Rhizobium melioti; details: other: coupled assay; pH 7.0
Experimental: as §1, §2, §3

[5] = other: apparent value, coupled assay, 20 μM PAPS

B1: βAST-IV (Rattus norvegicus) (protein)
chain: MEFSRPPLVHVKGIPLIKYFAETIGPLQNFTAWPDDLLISTYPKSGTTWMSEILDMIYQGGKLEKCGRAPIYARVPFLEFKCPGVPSGLETLEETPAPRLLKTHLPLSLLPQSLLDQKVKVIYIARNAKDVVVSYYNFYNMAKLHPDPGTWDSFLENFMDGEVSYGSWYQHVKEWWELRHTHPVLYLFYEDIKENPKREIKKILEFLGRSLPEETVDSIVHHTSFKKMKENCMTNYTTIPTEIMDHNVSPFMRKGTTGDWKNTFTVAQNERFDAHYAKTMTDCDFKFRCEL
notes: made in house; host or cells: E. coli BL21(DE3)
[1]
  Km: 26.4 ± 3.4 µM

B2: NodST (Sinorhizobium meliloti 1021) (protein)
chain: MTHSTLPPQPFAILAMPRTGTHYLEELVNEHPNVLSNGELLNTYDTNWPDKERLLLSDRELLERAFLRYPPHSDKKVTHVGCKINEPQFQERPSFFAELTAWPGLKVILVIRRNTLESLRSFVQARQTRQWLKFKSDSSAPPPPVMLPFATCEAYFKAADDFHARVVYAFDSSRIRLIEYERLLRDPVPCVATVLDFLGAPALQLADRGILRRQETRPLDQTVRNFHELRVHFANGPYARFFELAND
[2]; other: 20, 40 and 100 μM PAPS, all three within 10% variation, 3.0 mU NodST
  Km: 243 µM
[2]; [5]
  Km: 103 µM
  kcat: 0.458 s⁻¹
[3]
  Km: 20.4 ± 3.6 µM
  kcat: 0.328 ± 0.013 s⁻¹
[4]
  Km: 98.1 μμM

Reference: patent US6255088A, “Enzymatic sulfation of biomolecules” (The Scripps Research Institute, priority 1999, dated 2001)
